Reference: US20240067683A1, “USE OF MCM8-CGAS-STING-IFN-I SIGNAL PATHWAY AS DISEASE TARGET” (Guangzhou Women and Children's Medical Center, priority 2020, published 2024)
Changes are numbered by the printed parent chain. Numbers in names are those of the source. Each block holds one molecule with its values, some of them ahead of it.

Experiments:
MCM8 [1] = assay: TRIM21-mediated ubiquitination of MCM8; format: cell-based
MCM8 [2] = assay: Nuclear export of MCM8 detected by nuclear-cytoplasmic separation; format: cell-based
Protocol: The cells were treated with leptomycin B, a nuclear export inhibitor, to inhibit the protein shuttle out of the nucleus, and the expressions of MCM8 in the cytoplasm (cyto) and the nucleus (nuc) were respectively detected by nuclear-cytoplasmic separation. […] It could be seen that ubiquitination was essential for the nuclear export of MCM8. […] (see Panel f, FIG. 12).

pIRF3 = pIRF3 level by western blot in normal or p0 THP-1 cells, MCM8 knockdown, SeV stimulation; format: cell-based, human; conditions: mitochondrion-free p0 THP-1 cells from EtBr treatment
Protocol: (§1) To further verify the mechanism of MCM8-cGAS-STING pathway, the inventors knocked down MCM8 in THP-1 cells, stimulated the cells with SeV, and then treated the cells with MTP complex pore inhibitor cyclosporine A (CsA) ([…]) to inhibit the release of mitochondrial DNA. […] The results were similar when the mitochondria in the cells were removed by EtBr treatment. The process was as follows: THP-1 cells were treated with EtBr to completely remove the mitochondrial DNAs in the cells to construct mitochondrion-free p0 cells, MCM8 was knocked down in normal THP-1 or p0 THP-1, the cells were then stimulated with SeV, the expressions of IFN-α and IFN-β were detected by Q-PCR, and the level of pIRF3 (IRF3 protein activated by phosphorylation) was detected by western blot. […] In Panel D, four columns are taken as a group and represent, from left to right, ctrl siRNA blank control group, MCM8 siRNA control group, ctrl siRNA group of mitochondrion-free cells, and MCM8 siRNA group of mitochondrion-free cells. […] On the contrary, drugs that inhibits or eliminats mtDNA can block the function of MCM8 in regulating IFN-I, and MCM8-knockdown activates cGAS-STING-IFN-I signaling pathway by increasing the amount of cytoplasmic mtDNA.

IFN-I = IFN-I in MCM8-knockdown THP-1 cells stimulated with SeV, with CsA or EtBr (mitochondrion-free p0 cells) treatment; format: cell-based, human; conditions: mitochondrion-free p0 THP-1 cells from EtBr treatment
Protocol: as §1

IFNα and IFNβ = assay: Expression of IFNα and IFNβ by Q-PCR in THP-1 cells treated with mitophagosome formation inhibitor Mdivi; format: cell-based, human; conditions: control THP-1 cells treated with Mdivi, with or without SeV or LPS; similar to MCM8 knockdown
[3] = tested on: mitochondrial DNA in cytoplasm; assay: Cytoplasmic DNA source by Q-PCR after nuclear-cytoplasmic separation in THP-1 cells; format: cell-based, human; conditions: control THP-1 cells treated with Mdivi, with or without SeV or LPS; similar to MCM8 knockdown
From the text: Therefore, in order to explore whether DNA is produced in cytoplasm and the source, the inventors further knocked down MCM8 in THP-1 cells by transfection with MCM8-specific siRNA and stimulated the cells with SeV or poly(dA:dT). The stimulated cells were subjected to nuclear-cytoplasmic separation (Beyotime nuclear protein and cytoplasmic protein extraction kit was used for the nuclear-cytoplasmic separation herein, and the operation followed the instructions, the same below), and the cytoplasmic DNA was extracted for detecting the source of cytoplasmic DNA by qPCR.
Furthermore, the MCM8-knockdown THP-1 cells were stimulated or not stimulated with SeV and LPS, respectively, and treated with or without the mitophagosome formation inhibitor Mdivi, and the cytoplasmic DNA was extracted, and the content of mitochondrial DNA in cytoplasm and the expressions of IFNα and IFNβ were detected by Q-PCR.

IFN-β = IFN-β mRNA level by Q-PCR in 293T cells overexpressing MCM8 or its mutants, stimulated with poly(dA:dT); format: cell-based; conditions: 200 ng overexpressed
Protocol: Besides the previously found A276P and S365N mutations, the inventors found other point mutations related to Kawasaki disease, namely, S280C mutation and S764A mutation, and further conducted cloning and cell experiments, comprising the steps of using 293T cells to separately overexpress 200 ng MCM8, and each of mutants, namely, MCM8 (A276P), MCM8 (S280C), MCM8 (S365N) and MCM8 (S764A); and 24 hours after transfection, stimulating the cells with poly(dA:dT) for 0, 12 and 24 h, collecting RNA, and detecting the mRNA level of IFN-β by Q-PCR. […] Therefore, it can be further considered that the previously found mutations A276P and S365N in MCM8 are both mutation factors that affect the function of MCM8 in regulating IFN-I and lead to Kawasaki disease, while the mutations S280C and S764A are also newly discovered mutations in systemic vasculitis such as Kawasaki disease. These two mutations may be used to diagnose or assist in the diagnosis of Kawasaki disease and systemic vasculitis diseases similar to Kawasaki disease (e.g., systemic lupus erythematosus).

mitochondrial LC3 = assay: Western blot of mitochondrial LC3 and mitochondrial proteins in Hela cells overexpressing MCM8; format: cell-based; conditions: with or without LPS or SeV, vs EV control
From the text: Based on the findings in Embodiment 6, MCM8 is related to the amount of cytoplasmic mtDNA and cGAS-STING-IFN-I signaling pathway, while the amount of mtDNA is related to mitophagy, and therefore, the experiment was further carried out as follows. Experiment of MCM8-knockdown inhibiting mitophagy-related proteins: in MCM8-knockdown THP-1 cells, detection indicators related to mitophagy were studied. The cells were stimulated or not stimulated with LPS and SeV, respectively, and the expressions of mitochondrial LC3 and other mitochondrial proteins TOM20, MFN2, PINK1 and COXIV were detected by western blot. It was found from the results that, compared with the control group (Ctrl siRNA), MCM8-knockdown could inhibit the activation of mitochondrial LC3 and increase the amounts of mitochondrial proteins (TOM20, MFN2, PINK1, and COXIV) (see Panel A, FIG. 4). Correspondingly, MCM8 (Flag-MCM8) was overexpressed in Hela cells, the cells were stimulated or not stimulated with LPS and SeV, respectively, and the expressions of mitochondrial LC3 and other mitochondrial proteins (TOM20, MFN2, PINK1, and COXIV) were detected by western blot.

TRIM21 = biological target: T1, TRIM21 (Homo sapiens, UniProt P19474); assay: Co-immunoprecipitation of Flag-TRIM21 and HA-MCM8 in HeLa cells; format: binding
T1 construct: Flag; expressed in transfected cells; host or cells: HeLa
From the text: Further, HeLa cells were transfected with Flag-TRIM21 and HA-MCM8 and subjected to co-immunoprecipitation analysis.

LC3 = assay: Binding of full-length, truncated and point-mutated MCM8 to LC3
From the text: Proteins that directly bind to LC3 generally have a LIR motif, the inventors, when predicting with website whether MCM8 has a LIR motif, find that the sequence between the sites MCM8 272-277 is LIR motif. According to the functional domain of MCM8, the inventors constructed truncated mutants in various truncated forms of MCM8 and detected the results of the binding thereof to LC3.
By means of 3D structure prediction, the binding of MCM8 LIR motif to LC3 was simulated (see Panels C and D, FIG. 5).

[4] = stimulation with LPS and poly(dA:dT)

T1 sequence (P19474 whole entry): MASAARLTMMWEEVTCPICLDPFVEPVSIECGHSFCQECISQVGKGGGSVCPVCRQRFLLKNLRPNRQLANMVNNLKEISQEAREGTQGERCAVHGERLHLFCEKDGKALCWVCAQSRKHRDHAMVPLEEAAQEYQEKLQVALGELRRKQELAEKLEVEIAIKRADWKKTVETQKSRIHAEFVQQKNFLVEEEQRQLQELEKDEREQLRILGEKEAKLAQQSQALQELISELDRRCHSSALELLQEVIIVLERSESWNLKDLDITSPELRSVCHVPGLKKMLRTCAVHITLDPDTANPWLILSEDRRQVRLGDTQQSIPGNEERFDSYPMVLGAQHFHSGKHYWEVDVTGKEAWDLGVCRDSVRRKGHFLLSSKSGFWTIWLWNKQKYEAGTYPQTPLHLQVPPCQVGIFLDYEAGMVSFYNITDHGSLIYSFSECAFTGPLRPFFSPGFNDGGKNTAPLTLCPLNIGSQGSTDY

Molecule: CC(=N)NCc1cccc(CN)c1 [1400W]
ubiquitination of MCM8 mediated by TRIM21 (MCM8 [1]): significantly inhibited | nuclear export of MCM8 (MCM8 [2]; [4]): inhibited

Molecule: CC[n+]1c(-c2ccccc2)c2cc(N)ccc2c2ccc(N)cc21.[Br-] [EtBr]
expression of pIRF3 protein (pIRF3): significantly inhibited | function of MCM8 in regulating IFN-I (IFN-α and IFN-β expression, Q-PCR) (IFN-I): blocked

Molecule: COc1cc(-n2c(=S)[nH]c3ccccc3c2=O)c(Cl)cc1Cl [Mdivi]
expression levels of IFNα and IFNβ (IFNα and IFNβ): increase in the expression levels of IFNα and IFNβ | mtDNA aggregation in cytoplasm (Q-PCR) [3]: mtDNA aggregation

Molecule: NS(=O)(=O)OC[C@H]1C[C@@H](Nc2ccnc3cc(-c4cccc(SC(F)(F)F)c4)nn23)[C@H](O)[C@@H]1O [TAK-243]
nuclear export of MCM8 (MCM8 [2]; [4]): obviously inhibited

Molecule: CCC(=C/[C@H](C)C/C=C/C(C)=C/[C@@H](C)C(=O)[C@@H](C)[C@H](O)[C@@H](C)C/C(C)=C/C(=O)O)/C=C/[C@@H]1OC(=O)C=C[C@@H]1C [leptomycin B]
nuclear export of MCM8 (MCM8 [2]; stimulation with SeV and LPS): significantly inhibited

binding to TRIM21 upon stimulation (TRIM21; LPS or poly(dA:dT)): the binding increased | binding to E3 ubiquitin ligase TRIM21 (TRIM21; co-immunoprecipitation): could bind | direct binding to LC3 (LC3; mass spectrometry experiments): could directly bind to LC3
B1: MCM8: Full-length MCM8 protein (SEQ ID NO: 2), overexpressed in cells (protein, listed as Homo sapiens)
chain: MNGEYRGRGFGRGRFQSWKRGRGGGNFSGKWREREHRPDLSKTTGKRTSEQTPQFLLSTKTPQSMQSTLDRFIPYKGWKLYFSEVYSDSSPLIEKIQAFEKFFTRHIDLYDKDEIERKGSILVDFKELTEGGEVTNLIPDIATELRDAPEKTLACMGLAIHQVLTKDLERHAAELQAQEGLSNDGETMVNVPHIHARVYNYEPLTQLKNVRANYYGKYIALRGTVVRVSNIKPLCTKMAFLCAACGEIQSFPLPDGKYSLPTKCPVPVCRGRSFTALRSSPLTVTMDWQSIKIQELMSDDQREAGRIPRTIECELVHDLVDSCVPGDTVTITGIVKVSNAEEGSRNKNDKCMFLLYIEANSISNSKGQKTKSSEDGCKHGMLMEFSLKDLYAIQEIQAEENLFKLIVNSLCPVIFGHELVKAGLALALFGGSQKYADDKNRIPIRGDPHILVVGDPGLGKSQMLQAACNVAPRGVYVCGNTTTTSGLTVTLSKDSSSGDFALEAGALVLGDQGICGIDEFDKMGNQHQALLEAMEQQSISLAKAGVVCSLPARTSIIAAANPVGGHYNKAKTVSENLKMGSALLSRFDLVFILLDTPNEHHDHLLSEHVIAIRAGKQRTISSATVARMNSQDSNTSVLEVVSEKPLSERLKVVPGETIDPIPHQLLRKYIGYARQYVYPRLSTEAARVLQDFYLELRKQSQRLNSSPITTRQLESLIRLTEARARLELREEATKEDAEDIVEIMKYSMLGTYSDEFGNLDFERSQHGSGMSNRSTAKRFISALNNVAERTYNNIFQFHQLRQIAKELNIQVADFENFIGSLNDQGYLLKKGPKVYQLQTM
modifications: Flag or HA tag
IFN-β level (mRNA, Q-PCR) (IFN-β; poly(dA:dT) 0 h): 0 | IFN-β level (mRNA, Q-PCR) (IFN-β; poly(dA:dT) 12 h): 100 | IFN-β level (mRNA, Q-PCR) (IFN-β; poly(dA:dT) 24 h): 250 | activation of LC3 (mitochondrial LC3): promoted the activation of LC3 more obviously | mitochondrial proteins (TOM20, MFN2, PINK1, COXIV) (mitochondrial LC3): inhibited the increase of mitochondrial proteins

binding to LC3 (LC3; MCM8 constructs with or without LIR motif): greatly reduced
B2: MCM8 (A276P): MCM8 with point mutation A276P in the LIR motif, found in Kawasaki disease patients (protein)
chain: B1 chain with A276P

B3: MCM8 (S280C): MCM8 with point mutation S280C (protein, listed as Homo sapiens)
chain: B1 chain with S280C
IFN-β level (mRNA, Q-PCR) (IFN-β; poly(dA:dT) 24 h): below 250
